Data published in patent US20200283507A1 (US Dept. of Health and Human Services, published 2020).
Numbering of substitutions follows the chain as printed.

T1: Hu/NoV/GI.1/Norwalk/1968/U.S. VLP (human norovirus GI.1, UniProt Q83884 1-530 (Norovirus (strain entry), limits assumed))
T1 construct: mature; full-length VP1 (ORF2) assembled as virus-like particle in baculovirus/Sf9; also called Norwalk VLP; NV
T1 sequence (looked up): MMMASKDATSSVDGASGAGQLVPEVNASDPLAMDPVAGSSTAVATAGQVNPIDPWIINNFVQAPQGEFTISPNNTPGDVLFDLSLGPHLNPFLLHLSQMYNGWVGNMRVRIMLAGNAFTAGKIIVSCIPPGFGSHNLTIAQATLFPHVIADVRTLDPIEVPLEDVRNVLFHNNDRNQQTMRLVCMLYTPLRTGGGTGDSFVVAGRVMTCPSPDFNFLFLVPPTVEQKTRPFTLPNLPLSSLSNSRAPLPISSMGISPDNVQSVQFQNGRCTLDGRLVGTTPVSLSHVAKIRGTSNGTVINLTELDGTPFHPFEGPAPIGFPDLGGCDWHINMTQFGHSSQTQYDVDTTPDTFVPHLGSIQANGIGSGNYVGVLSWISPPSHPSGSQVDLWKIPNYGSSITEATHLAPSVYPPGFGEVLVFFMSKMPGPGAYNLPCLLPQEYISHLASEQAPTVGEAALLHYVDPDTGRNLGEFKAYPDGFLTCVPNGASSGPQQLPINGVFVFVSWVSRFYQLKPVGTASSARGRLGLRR

B1: VHH 13.1 (VHH)
VHH: QVKLQESGGGWVQAGGSLRLSCAASALTASITTMGWFRQTPEKEREFLAAINWTGDYKYYADSVKGRFTISRDNAKNTVDLQMNQLKPEDTAVYYCAASKIRNDIYLNDYTWYQYWGQGTQVTVSS
notes: llama VHH, Norwalk library, subtractive biopanning; His6 tag; also called 13.2; clone 13
B2: VHH 5.4 (VHH)
VHH: QVQLQQSGGGLVQPGGSLRLSCVASESTVSINIMGWYRQAPGKQRELVATITTGGTTNYADSVKGRFTISRDNAKNTVYLQMNSLEPEDTAVYYCNLKRRDLQARFGGYWGQGTQVTVSS
notes: llama VHH, MD2004 library; pHEN6, C-terminal His6 tag; also called clone 5.4
B3: VHH 4.1 (VHH)
VHH: B2 VHH with Q3K, V23A, V29I, I33T, M34L, K43N, S84N, E88G, A104S
notes: llama VHH, MD2004 library; pHEN6, C-terminal His6 tag; also called clone 4.1
B4: VHH 19 (VHH)
VHH: QVKLQQSGGGLVQPGGSLRLSCAASGFTFRNYAMSWVRQAPGKGLEWVSAIAAGGAVTKYADSVKGRFTISRDNARDTLYLQMNSLKPEDTAVYYCAKPRDFWYSPEFDFRGQGTQVTVSS
notes: MD2004 library, subtractive biopanning; His6 tag; also called 19.1; clone 19
B5: VHH 6.3 (VHH)
VHH: QVQLQQSGGGLVQPGGSLRLSCAASGSIFSIHTMGWYRQAPGKQRELVTTITTGGTTNYADSVKGRFTISRDDAKNTVYLQMNNLKPEDTAVYYCYALIQTASTTWYRQYWGQGTQVTVSS
notes: llama VHH, Norwalk (GI.1) library; also called clone 6.3
B6: VHH 7.3 (VHH)
VHH: QVKLQESGGGLVQPGGSLRLSCTASRSIFTRAMAWYRQAPGKQRELVAAIDSGDRTHYADSVKGRFTISRNNAKDTLYLQMNSLKSEDTAVYYCNANLGALLDYWGQGTQVTVSS
notes: llama VHH, Norwalk library; pHEN6, C-terminal His6 tag; also called clone 7.3

Columns and labels:
[1] = target: T1, Hu/NoV/GI.1/Norwalk/1968/U.S. VLP; assay: blockade ELISA: VLP binding to PGM type III
Experimental: (§1) Pig Gastric Mucin Type III (PGM) (Sigma Chemicals) was used as a substrate for NoV VLP antibody-blockade assay as previously described. Briefly, PGM was resuspended in PBS at 5 mg/ml and coated onto 96 well U bottom polyvinyl plates Dynatech (Nunc, Thermo, USA) at 10 μg/ml in PBS for 4 hours. Plates were then blocked ON at 4° C. in 5% dry milk in 0.05% Tween₂₀-PBS. […] One hundred μl of VLPs-VHH mix were transferred to the PGM coated plates and incubated for 1 hour. Bound VLPs were detected by specific hyperimmune sera made in guinea pig, followed by anti-guinea pig IgG-HRP (KLP). ABTS/H₂O₂ was used as chromogen/substrate solution. All incubations were performed at room temperature and absorbance at 405 nm was measured. Mean % control binding, EC50 and criteria for determination of a blockade VHH were calculated as described above.

[2] = target: T1, Hu/NoV/GI.1/Norwalk/1968/U.S. VLP; assay: blockade ELISA: VLP binding to synthetic HBGA H1
[3] = target: T1, Hu/NoV/GI.1/Norwalk/1968/U.S. VLP; assay: cell-based or functional assay
[4] = target: T1, Hu/NoV/GI.1/Norwalk/1968/U.S. VLP; assay: VLP ELISA
[5] = target: T1, Hu/NoV/GI.1/Norwalk/1968/U.S. VLP; assay: blockade ELISA: VLP binding to saliva Ly+
Experimental: (§2) For this assay saliva positive for Ly antigen collected from a secretor individual was used. Saliva was boiled (95° C.) for 10 minutes immediately after collection, centrifuged for 5 minutes at 13000×g and the supernatants stored at −20° C. until used. ELISA 96 well U bottom polyvinyl plates Dynatech (Nunc, Thermo, EEUU) were coated with 100 μl/well of a 1/400 saliva dilution in 50 μM carbonate-bicarbonate buffer, pH 9.6. The plate was incubated overnight at 37° C. in a wet atmosphere. In parallel, serial two-fold dilutions of VHH starting from 8 ug/ml were mixed with 1.5 ug/ml of NoV VLP Norwalk and MD145 and incubated for 1h at 37° C. After 6 washes and a blocking step with 5% dry milk/0.05% Tween₂₀-PBS, 50 ul of each VHH-VLP mixture was transferred to the reaction plate, in duplicate. The assay was developed using a specific polyclonal antiserum made in guinea pig (1:10,000) followed by a peroxidase labeled anti-guinea pig IgG (1:2,000) and ABTS/H₂O₂ as substrate chromogen (KPL), 100 μl per well. Absorbance at 405 nm was measured. Mean % control binding, EC50 and criteria for determination of a blockade VHH were calculated as described above.

[6] = target: T2, Hu/NoV/GII.4/MD2004/2004/U.S. VLP (human norovirus GII.4); assay: blockade ELISA: VLP binding to PGM type III
T2 construct: mature; baculovirus VLP; VP2 may be present; also called MD2004 VLP
Experimental: as §1

[7] = target: T3, Hu/NoV/GII.4/MD145-12/1997/U.S. VLP (human norovirus GII.4); assay: cell-based or functional assay
[8] = target: T2, Hu/NoV/GII.4/MD2004/2004/U.S. VLP; assay: cell-based or functional assay
[9] = target: T4, Hu/GII.6/Bethesda/2012/U.S. VLP (human norovirus GII.6); assay: VLP ELISA
T4 construct: mature; baculovirus VLP; VP2 may be present

[10] = target: T5, Hu/NoV/GII.3/CHDC4031/1988/U.S. VLP (human norovirus GII.3); assay: VLP ELISA
T5 construct: mature; baculovirus VLP; VP2 may be present

[11] = target: T6, Hu/NoV/GII.4/CHDC4871/1977/U.S. VLP (human norovirus GII.4); assay: VLP ELISA
T6 construct: mature; baculovirus VLP; VP2 may be present

[12] = target: T3, Hu/NoV/GII.4/MD145-12/1997/U.S. VLP; assay: VLP ELISA
[13] = target: T7, Hu/NoV/GII.4/RockvilleD1/2012/U.S. VLP (human norovirus GII.4); assay: VLP ELISA
T7 construct: mature; baculovirus VLP; VP2 may be present

[14] = target: T8, Hu/NoV/Snow Mountain/GII.2/U.S. VLP (human norovirus GII.2); assay: VLP ELISA
T8 construct: mature; baculovirus VLP; VP2 may be present

[15] = target: T9, Hu/NoV/GII.4/HS-191/2001/U.S. VLP (human norovirus GII.4); assay: VLP ELISA
T9 construct: mature; baculovirus VLP; VP2 may be present

[16] = target: T10, Hu/NoV/GII.2/Henryton/1971/U.S. VLP (human norovirus GII.2); assay: VLP ELISA
T10 construct: mature; baculovirus VLP; VP2 may be present

[17] = target: T2, Hu/NoV/GII.4/MD2004/2004/U.S. VLP; assay: VLP ELISA
[18] = target: T11, Hu/NoV/GII.7/DC119/U.S. VLP (human norovirus GII.7); assay: VLP ELISA
T11 construct: mature; baculovirus VLP; VP2 may be present

[19] = target: T12, Hu/NoV/GII.1/Hawaii/1971/U.S. VLP (human norovirus GII.1); assay: VLP ELISA
T12 construct: mature; baculovirus VLP; VP2 may be present

[20] = target: T3, Hu/NoV/GII.4/MD145-12/1997/U.S. VLP; assay: blockade ELISA: VLP binding to synthetic HBGA H3
[21] = target: T3, Hu/NoV/GII.4/MD145-12/1997/U.S. VLP; assay: blockade ELISA: VLP binding to saliva Ly+
Experimental: as §2

[22] = target: T13, Hu/NoV/GI.1/P7-587/2007/Stromstad/Sweden VLP (human norovirus GI.1); assay: cell-based or functional assay
[23] = target: T13, Hu/NoV/GI.1/P7-587/2007/Stromstad/Sweden …; assay: VLP ELISA
[24] = target: T14, Hu/NoV/GI.3/Desert-Shield395/1990/U.S. VLP (human norovirus GI.3); assay: VLP ELISA
T14 construct: mature; baculovirus VLP; VP2 may be present

| Binder | EC50 [1] [µg/mL] | EC50 [2] [µg/mL] | HAI titer, 0 Rh- RBC [3] [µg/mL] | minimum concentration of VHH able to recognize 100 ng of VLP [4] [ng/well] | EC50 [5] [µg/mL] | EC50 [6] [µg/mL] | HAI titer, B Rh+ RBC [7] [µg/mL] | HAI titer, B Rh+ RBC [8] [µg/mL] | minimum concentration of VHH able to recognize 100 ng of VLP [9] [ng/well] | minimum concentration of VHH able to recognize 100 ng of VLP [10] [ng/well] | minimum concentration of VHH able to recognize 100 ng of VLP [11] [ng/well] | minimum concentration of VHH able to recognize 100 ng of VLP [12] [ng/well] | minimum concentration of VHH able to recognize 100 ng of VLP [13] [ng/well] | minimum concentration of VHH able to recognize 100 ng of VLP [14] [ng/well] | minimum concentration of VHH able to recognize 100 ng of VLP [15] [ng/well] | minimum concentration of VHH able to recognize 100 ng of VLP [16] [ng/well] | minimum concentration of VHH able to recognize 100 ng of VLP [17] [ng/well] | minimum concentration of VHH able to recognize 100 ng of VLP [18] [ng/well] | minimum concentration of VHH able to recognize 100 ng of VLP [19] [ng/well] | EC50 [21] [µg/mL] | other results |
| --- | --- | --- | --- | --- | --- | --- | --- | --- | --- | --- | --- | --- | --- | --- | --- | --- | --- | --- | --- | --- | --- |
| B1 | 1.29 | 2.03 | 0.19 | 2 | 2.27 | – | – | – | – | – | – | – | – | – | – | – | – | – | – | – | – |
| B2 | – | – | – | – | – | 2.02 | 0.39 | 0.39 | 1 | 0.5 | 0.5 | 4 | 0.5 | 2 | 0.25 | 2 | 1 | 0.5 | 1 | 1.27 | EC50 [20]: 0.718 µg/mL |
| B3 | – | – | – | – | – | 2.91 | 0.39 | 0.19 | 2 | 2 | 0.5 | 2 | 1 | 2 | 0.5 | 1 | 2 | 0.5 | 1 | 1.38 | EC50 [20]: 0.712 µg/mL |
| B4 | – | – | – | – | – | 0.583 | 0.39 | 0.39 | 2 | 0.5 | 1 | 4 | 2 | 2 | 1 | 2 | 2 | 1 | 1 | 1.3 | – |
| B5 | 0.661 | 1.01 | 0.19 | 0.5 | 2.04 | – | – | – | – | – | – | – | – | – | – | – | – | – | – | – | HAI titer, 0 Rh- RBC [22]: 0.05 µg/mL; minimum concentration of VHH able to recognize 100 ng of VLP [23]: 0.5 ng/well |
| B6 | – | – | 0.39 | 0.5 | – | – | – | – | – | – | – | – | – | – | – | – | – | – | – | – | HAI titer, 0 Rh- RBC [22]: 0.05 µg/mL; minimum concentration of VHH able to recognize 100 ng of VLP [24]: 0.5 ng/well; minimum concentration of VHH able to recognize 100 ng of VLP [23]: 0.5 ng/well |
